Measured values published in patent US11008403 (dated 2021).

How the values were obtained:
[1] = target: T1, cyno TfR ECD (cynomolgus); assay: SPR
T1 chain: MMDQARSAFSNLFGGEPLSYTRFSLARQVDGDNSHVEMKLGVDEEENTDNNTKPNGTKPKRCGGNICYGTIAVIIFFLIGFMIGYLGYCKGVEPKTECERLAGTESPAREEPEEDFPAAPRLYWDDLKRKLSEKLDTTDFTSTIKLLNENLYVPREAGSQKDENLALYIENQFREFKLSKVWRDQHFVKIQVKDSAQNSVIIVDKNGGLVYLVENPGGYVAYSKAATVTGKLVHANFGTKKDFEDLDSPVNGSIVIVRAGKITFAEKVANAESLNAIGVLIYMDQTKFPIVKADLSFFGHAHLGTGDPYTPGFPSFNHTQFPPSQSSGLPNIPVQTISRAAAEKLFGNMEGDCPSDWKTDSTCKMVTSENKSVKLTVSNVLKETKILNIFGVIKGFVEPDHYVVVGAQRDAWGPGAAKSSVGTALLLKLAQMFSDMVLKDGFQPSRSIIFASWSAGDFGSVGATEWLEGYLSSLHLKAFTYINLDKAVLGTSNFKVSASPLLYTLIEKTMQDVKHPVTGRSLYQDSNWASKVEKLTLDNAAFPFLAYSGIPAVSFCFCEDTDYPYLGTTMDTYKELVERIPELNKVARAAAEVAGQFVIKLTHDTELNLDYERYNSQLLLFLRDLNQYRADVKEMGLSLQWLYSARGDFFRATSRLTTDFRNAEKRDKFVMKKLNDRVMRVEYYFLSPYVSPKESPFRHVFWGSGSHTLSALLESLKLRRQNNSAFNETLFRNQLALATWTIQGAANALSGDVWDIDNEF

[2] = target: human TfR ECD (human); assay: SPR

- Kd [1]: 23.7 nM
- Kd [2]: 9 nM
B1: Anti-TfR1/6266.hIgG1.N297G, TfR arm (antibody, V domains shown)
VH: EVQLVQSGAEVKKPGASVKVSCKASGYTFTSYWMHWVRQAPGQRLEWIGEINPTNGRTNYIEKFKSRATLTVDKSASTAYMELSSLRSEDTAVYYCARGTRAYHYWGQGTMVTVSS
VL: DIQMTQSPSSLSASVGDRVTITCRASDNLYSNLAWYQQKPGKSPKLLVYDATNLADGVPSRFSGSGSGTDYTLTISSLQPEDFATYYCQHFWGTPLTFGQGTKVEIK
